According to patent publication US20130330334A1 (FRAUNHOFER GESELLSCHAFT ZUR F RDERUNG DER ANGEWANDTEN …, published 2013):

Molecular target: T1, human CD4 (coated on ELISA plate) (human, UniProt P01730 26-396, limits assumed)
Test: competition ELISA, plate-coated human CD4, competitor biotinylated mouse antibody at 0.2 µg/ml

Binder	Relative Binding (IC50 of test sample divided by IC50 of mouse antibody)
modified anti-CD4 antibody VH3/VK4 (antibody, V domains shown) VH: EVQLQQSGSELKRPGASVKMSCKASGYTFANYWMHWVKQAPGQGLQWIGALYPGNVDTTYNQKFKDKAKLTAVTSASTAYMELSSLTNEDTAVYYCTRMGTTLEAPLDYWGQGTLVTVSS VL: QIVLTQSPAILSASPGEKAAMTCSARSSVSYLYWYQQKPGSSPRLLIYDTSNLASGVPSRFIGSGSGTDYSLTISSMEAEDAATYYCQQWSDYPLTFGAGTKLEIK	1.44 fold
modified anti-CD4 antibody VH2/VK1 (antibody, V domains shown) VH: EVQLQQSGSELKRPGASVKVSCKASGYTFANYWMHWVKQAPGQGLQWIGALYPGNVDTTYNQKFKDKAKLTADTSASTAYMELSSLTNEDTAVYYCTRMGTTLEAPLDYWGQGTLVTVSS VL: QIVLTQSPATLSASPGEKAAMTCSARSSVSYLYWYQQKPGSSPRALIYDTSNLASGVPSRFSGSGSGTDYSLTISSMEAEDAATYYCQQWSDYPLTFGAGTKLEIK	8.66 fold
modified anti-CD4 antibody VH1/VK4 (antibody, V domains shown) VH: EVQLQQSGSELKRPGASVKVSCKASGYTFANYWMHWVRQAPGQGLQWIGALYPGNVDTTYNQKFKDKAKITRDTSASTAYMELSSLTNEDTAVYYCTRMGTTLEAPLDYWGQGTLVTVSS VL: QIVLTQSPAILSASPGEKAAMTCSARSSVSYLYWYQQKPGSSPRLLIYDTSNLASGVPSRFIGSGSGTDYSLTISSMEAEDAATYYCQQWSDYPLTFGAGTKLEIK	5.06 fold
modified anti-CD4 antibody VH1/VK1 (antibody, V domains shown, VK1=20, VK2=18, VK3=16, VK4=14) VH: EVQLQQSGSELKRPGASVKVSCKASGYTFANYWMHWVRQAPGQGLQWIGALYPGNVDTTYNQKFKDKAKITRDTSASTAYMELSSLTNEDTAVYYCTRMGTTLEAPLDYWGQGTLVTVSS VL: QIVLTQSPATLSASPGEKAAMTCSARSSVSYLYWYQQKPGSSPRALIYDTSNLASGVPSRFSGSGSGTDYSLTISSMEAEDAATYYCQQWSDYPLTFGAGTKLEIK	0.14 fold

Next, values leading:

Relative Binding (IC50 of test sample divided by IC50 of mouse antibody)	Binder
1.77 fold	modified anti-CD4 antibody VH3/VK2 (antibody, V domains shown) VH: EVQLQQSGSELKRPGASVKMSCKASGYTFANYWMHWVKQAPGQGLQWIGALYPGNVDTTYNQKFKDKAKLTAVTSASTAYMELSSLTNEDTAVYYCTRMGTTLEAPLDYWGQGTLVTVSS VL: QIVLTQSPATLSASPGEKAAMTCSARSSVSYLYWYQQKPGSSPRLLIYDTSNLASGVPSRFSGSGSGTDYSLTISSMEAEDAATYYCQQWSDYPLTFGAGTKLEIK
0.96 fold	modified anti-CD4 antibody VH2/VK2 (antibody, V domains shown) VH: EVQLQQSGSELKRPGASVKVSCKASGYTFANYWMHWVKQAPGQGLQWIGALYPGNVDTTYNQKFKDKAKLTADTSASTAYMELSSLTNEDTAVYYCTRMGTTLEAPLDYWGQGTLVTVSS VL: QIVLTQSPATLSASPGEKAAMTCSARSSVSYLYWYQQKPGSSPRLLIYDTSNLASGVPSRFSGSGSGTDYSLTISSMEAEDAATYYCQQWSDYPLTFGAGTKLEIK
0.73 fold	modified anti-CD4 antibody VH4/VK2 (antibody, V domains shown) VH: EVQLQQSGTELKRPGASVKMSCKASGYTFANYWMHWVKQAPGQGLQWIGALYPGNVDTTYNQKFKDKAKLTAVTSASTAYMELSSLTNEDSAVYYCTRMGTTLEAPLDYWGQGTTVTVSS VL: QIVLTQSPATLSASPGEKAAMTCSARSSVSYLYWYQQKPGSSPRLLIYDTSNLASGVPSRFSGSGSGTDYSLTISSMEAEDAATYYCQQWSDYPLTFGAGTKLEIK
3.89 fold	modified anti-CD4 antibody VH4/VK1 (antibody, V domains shown) VH: EVQLQQSGTELKRPGASVKMSCKASGYTFANYWMHWVKQAPGQGLQWIGALYPGNVDTTYNQKFKDKAKLTAVTSASTAYMELSSLTNEDSAVYYCTRMGTTLEAPLDYWGQGTTVTVSS VL: QIVLTQSPATLSASPGEKAAMTCSARSSVSYLYWYQQKPGSSPRALIYDTSNLASGVPSRFSGSGSGTDYSLTISSMEAEDAATYYCQQWSDYPLTFGAGTKLEIK
0.49 fold	modified anti-CD4 antibody VH4/VK4 (antibody, V domains shown) VH: EVQLQQSGTELKRPGASVKMSCKASGYTFANYWMHWVKQAPGQGLQWIGALYPGNVDTTYNQKFKDKAKLTAVTSASTAYMELSSLTNEDSAVYYCTRMGTTLEAPLDYWGQGTTVTVSS VL: QIVLTQSPAILSASPGEKAAMTCSARSSVSYLYWYQQKPGSSPRLLIYDTSNLASGVPSRFIGSGSGTDYSLTISSMEAEDAATYYCQQWSDYPLTFGAGTKLEIK
1.44 fold	modified anti-CD4 antibody VH2/VK4 (antibody, V domains shown) VH: EVQLQQSGSELKRPGASVKVSCKASGYTFANYWMHWVKQAPGQGLQWIGALYPGNVDTTYNQKFKDKAKLTADTSASTAYMELSSLTNEDTAVYYCTRMGTTLEAPLDYWGQGTLVTVSS VL: QIVLTQSPAILSASPGEKAAMTCSARSSVSYLYWYQQKPGSSPRLLIYDTSNLASGVPSRFIGSGSGTDYSLTISSMEAEDAATYYCQQWSDYPLTFGAGTKLEIK

Molecular target: T1, human CD4 (coated on ELISA plate)
Test: competition ELISA, plate-coated CD4, competitor biotinylated mouse anti-CD4 at 0.2 µg/ml
Procedure: The chimeric antibody was tested in an ELISA-based competition assay using mouse anti-CD4 antibody, biotinylated using a B-Tag micro biotinylation kit (Sigma, Poole UK). A dilution series of chimeric IgG4 or control mouse antibody from 10 μg/ml to 0.009 μg/ml was premixed with a constant concentration of biotinylated anti-CD4 (0.2 μg/ml) before incubating 100 μl/well for 1 hour at room temperature in a Nunc MaxiSorp 96 well flat bottom microtitre plate (Fisher, Loughborough, UK) pre-coated with 50 μl/well of 1 μg/ml CD4. The binding of the biotinylated mAb was determined by incubating for 1 h at room temperature with 100 μl/well of a 1/500 dilution of streptavidin-HRP (Sigma), followed by detection with 100 μl/well OPD substrate (Sigma). After stopping the reaction with 50 μl/well 3M HCl, absorbance at 490 nm was measured using a Dynex Technologies (Worthing, UK) MRX TC II plate reader.
Therefore the correct variable region sequences have been identified and cloned.

IC50	Binder
0.25 µg/mL	chimeric anti human CD4-antibody (chimeric IgG4) (antibody, V domains shown, Mouse VH and VL were cloned into pANTVhG4 (human genomic IgG4 constant region) and pANTVk (human kappa constant region) and expressed in NS0 cells; also called chimeric anti-CD4 antibody; chimeric antibody) VH: EVQLQQSGTVLARPGASVQMSCKASGYSFANYWMHWVKQRPGQGLQWIGALYPGNVDTTYNQKFKDKAKLTAVTSASTAYMELSSLTNEDSAVYYCTRMGTTLEAPLDYWGQGTTLTVSS VL: QIVLTQSPAIMSASPGEKVAMTCSARSSVSYLYWYQQKPGSSPRLLIYDTSNLASGVPVRFIGSGSGTSYSLTISRMEAEDAATYYCQQWSDYPLTFGAGTKLELK
0.18 µg/mL	monoclonal mouse anti human CD4-antibody 30F16H5 (antibody, mouse IgG1, V domains shown, also called Max16H5; Max.16H5) VH: EVQLQQSGTVLARPGASVQMSCKASGYSFANYWMHWVKQRPGQGLQWIGALYPGNVDTTYNQKFKDKAKLTAVTSASTAYMELSSLTNEDSAVYYCTRMGTTLEAPLDYWGQGTTLTVSS VL: QIVLTQSPAIMSASPGEKVAMTCSARSSVSYLYWYQQKPGSSPRLLIYDTSNLASGVPVRFIGSGSGTSYSLTISRMEAEDAATYYCQQWSDYPLTFGAGTKLELK
